The record followed here is the supplement of paper PMC7877785.

The data set in a line: self-splicing fitness, log relative to wild type (ln ratio); higher = more splicing; Tetrahymena group I intron in knt gene, E. coli kanamycin selection, DiMSum; sequences stand for … in CUCUCU…GGAGGGAAAAGUUAUCAGGCAUGCACCUGGUAGCUAGUCUUUAAACCAAUAGAUUGCAUCGGUUUAAAAGGCAAGACCGUCAAAUUGCGGGAAAGGGGUCAACAGCCGUUCAGUACCAAGUCUCAGGGGAAACUUUGAGAUGGCCUUGCAAAGGGUAUGGUAAUAAGCUGACGGACAUGGUCCUAACCACGCAGCCAAGUCCUAAGUCAACAGAUCUUCUGUUGAUAUGGAUGCAGUUCACAGACUAAAUGUCGGUCGGGGAAGAUGUAUUCUUCUCAUAAGAUAUAGUCGGACCUCUCCUUAAUGGGAGCUAGCGGAUGAAGUGAUGCAACACUGGAGCCGCUGGGAACUAAUUUGUAUGCGAAAGUAUAUUGAUUAGUUUUGGAGUACUCGUGGUCG
Summed up: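 DiMSum derived fitness as the error-weighted combination of fold changes across replicates, kanamycin versus no kanamycin, normalised to wild type. E. coli BL21(DE3) held the library, which randomised all eight P1ex-region intron nucleotides within the knt kanamycin-resistance gene on pET-22b(+). Six replicate transformations grew overnight at 37°C or 30°C on LB agar with or without 25 μg/mL kanamycin, also containing 100 μg/mL carbenicillin, 50 μM IPTG and 0.2% rhamnose, and pooled colonies were amplicon-sequenced on an Illumina HiSeq 2500.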

± gives the uncertainty stated by the source.

As for ACGGAGCAAUAUUACGUGUU, the “self-splicing fitness (ln)” value by setting is: (30 °C) -3.23 ± 0.13; (37 °C) -2.56 ± 0.16.

Regarding ACUGAGCAAUAUUACGCCUC, the “self-splicing fitness (ln)” value (30 °C) is -2.32 ± 0.31.

In the case of ACGAAGCAAUAUUACGUCAU, the “self-splicing fitness (ln)” value runs as follows: (30 °C) -2.99 ± 0.12; (37 °C) -2.81 ± 0.14.

On to UCGAAGCAAUAUUACGCUGA, for which the “self-splicing fitness (ln)” value by setting is: (30 °C) -3.44 ± 0.33; (37 °C) -2.31 ± 0.29.

For the sequence GUCAAGCAAUAUUACGGAAA, the “self-splicing fitness (ln)” value is -2.28 ± 0.14 (30 °C) and -1.72 ± 0.12 (37 °C).

Turning to UUACAGCAAUAUUACGGUAG, the “self-splicing fitness (ln)” value was -1.92 ± 0.12 (30 °C) and -0.729 ± 0.13 (37 °C).

On to GUCGAGCAAUAUUACGUCCG, for which the “self-splicing fitness (ln)” value (30 °C) was -4 ± 0.43 and the “self-splicing fitness (ln)” value (37 °C) was -0.959 ± 0.3.

As to CGAAAGCAAUAUUACGCACC, the “self-splicing fitness (ln)” value runs as follows: (30 °C) -1.17 ± 0.14; (37 °C) -0.396 ± 0.19.

Take AGCCAGCAAUAUUACGUGAC: the “self-splicing fitness (ln)” value is -3.29 ± 0.17 (30 °C) and -2.05 ± 0.19 (37 °C).

As for GUUGAGCAAUAUUACGGCCC, the “self-splicing fitness (ln)” value (30 °C) was -1.28 ± 0.19 and the “self-splicing fitness (ln)” value (37 °C) is -0.757 ± 0.29.

Turning to CCCCAGCAAUAUUACGUUAA, the “self-splicing fitness (ln)” value reads like this: (30 °C) -3.33 ± 0.14; (37 °C) -2.76 ± 0.13.

For the sequence GGGUAGCAAUAUUACGUUAU, the “self-splicing fitness (ln)” value (30 °C) is -3.17 ± 0.25 and the “self-splicing fitness (ln)” value (37 °C) was -1.33 ± 0.15.

AAUCAGCAAUAUUACGAGUG: the “self-splicing fitness (ln)” value (30 °C) was -0.769 ± 0.053 and the “self-splicing fitness (ln)” value (37 °C) was -0.281 ± 0.08.

Regarding UCGAAGCAAUAUUACGAGGU, the “self-splicing fitness (ln)” value reads like this: (30 °C) -3.45 ± 0.4; (37 °C) -2.03 ± 0.29.

On to CCAUAGCAAUAUUACGAUCC, for which the “self-splicing fitness (ln)” value is -3.2 ± 0.35 (30 °C) and -1.43 ± 0.41 (37 °C).

Turning to GGCUAGCAAUAUUACGCACG, the “self-splicing fitness (ln)” value by setting is: (30 °C) -0.276 ± 0.093; (37 °C) -0.119 ± 0.1.

Take UGCGAGCAAUAUUACGGUAA: the “self-splicing fitness (ln)” value is, setting by setting: (30 °C) -2.4 ± 0.17; (37 °C) -2.22 ± 0.16.

With UUAAAGCAAUAUUACGGUGA, the “self-splicing fitness (ln)” value runs as follows: (30 °C) -0.488 ± 0.097; (37 °C) 0.559 ± 0.13.

For UGUGAGCAAUAUUACGCCGC, the “self-splicing fitness (ln)” value was -2.82 ± 0.34 (30 °C) and -1.2 ± 0.48 (37 °C).

For the sequence CACUAGCAAUAUUACGACUU, the “self-splicing fitness (ln)” value is, setting by setting: (30 °C) -2.29 ± 0.15; (37 °C) -0.517 ± 0.12.

On to AGUUAGCAAUAUUACGACAU, for which the “self-splicing fitness (ln)” value amounted to 0.112 ± 0.013 (30 °C) and 0.071 ± 0.033 (37 °C).

Consider CCGCAGCAAUAUUACGAUGA, for which the “self-splicing fitness (ln)” value (30 °C) is -3.2 ± 0.38.

For CGAGAGCAAUAUUACGCAUA, the “self-splicing fitness (ln)” value is -2.12 ± 0.44 (30 °C) and -1.44 ± 0.49 (37 °C).

For AACUAGCAAUAUUACGGCGU, the “self-splicing fitness (ln)” value (30 °C) was -0.717 ± 0.072 and the “self-splicing fitness (ln)” value (37 °C) is 0.0758 ± 0.085.

On to CCGCAGCAAUAUUACGGGCC, for which the “self-splicing fitness (ln)” value by setting is: (30 °C) -2.9 ± 0.25; (37 °C) -2.34 ± 0.29.

With AAGAAGCAAUAUUACGCGGU, the “self-splicing fitness (ln)” value by setting is: (30 °C) -3.58 ± 0.3; (37 °C) -1.54 ± 0.19.

Regarding AUAUAGCAAUAUUACGAUCU, the “self-splicing fitness (ln)” value (30 °C) was 0.333 ± 0.15 and the “self-splicing fitness (ln)” value (37 °C) was 0.288 ± 0.13.

GCGAAGCAAUAUUACGGGUG: the “self-splicing fitness (ln)” value reads like this: (30 °C) -1.77 ± 0.085; (37 °C) -1.88 ± 0.1.

For AUGGAGCAAUAUUACGGUAA, the “self-splicing fitness (ln)” value (37 °C) was -1.08 ± 0.16.

As for UUCAAGCAAUAUUACGGAUU, the “self-splicing fitness (ln)” value is, setting by setting: (30 °C) -3.19 ± 0.17; (37 °C) -1.96 ± 0.14.

With CGCCAGCAAUAUUACGGUAA, the “self-splicing fitness (ln)” value (30 °C) is -0.8 ± 0.069 and the “self-splicing fitness (ln)” value (37 °C) came out at 0.0236 ± 0.072.

For AGUGAGCAAUAUUACGUUUA, the “self-splicing fitness (ln)” value is -3.37 ± 0.45 (30 °C) and -2.04 ± 0.22 (37 °C).

AAAGAGCAAUAUUACGUCCC: the “self-splicing fitness (ln)” value was -2.1 ± 0.28 (30 °C) and -1.07 ± 0.35 (37 °C).

For the sequence AAACAGCAAUAUUACGAGCA, the “self-splicing fitness (ln)” value is -1.76 ± 0.091 (30 °C) and -1.09 ± 0.082 (37 °C).

For UAAUAGCAAUAUUACGAUCA, the “self-splicing fitness (ln)” value reads like this: (30 °C) -0.744 ± 0.085; (37 °C) 0.387 ± 0.1.

In the case of AACCAGCAAUAUUACGGCCG, the “self-splicing fitness (ln)” value (30 °C) came to 0.0592 ± 0.073 and the “self-splicing fitness (ln)” value (37 °C) was -0.223 ± 0.1.

On to GUUAAGCAAUAUUACGUUUC, for which the “self-splicing fitness (ln)” value (30 °C) is -1.75 ± 0.21 and the “self-splicing fitness (ln)” value (37 °C) was -1.29 ± 0.18.

Regarding CGGUAGCAAUAUUACGGCGG, the “self-splicing fitness (ln)” value (30 °C) stood at 0.494 ± 0.093 and the “self-splicing fitness (ln)” value (37 °C) was 0.0118 ± 0.096.
